Measured values published in patent publication US20080213256A1 (MICROMET, published 2008).

How the values were obtained:
human CD3 complex = human CD3 complex (human, UniProt P07766 23-207; P04234 22-171; P09693 23-182); assay: cell-based or functional assay
CD19 = biological target: T1, CD19 (human, UniProt P15391 20-556); assay: FACS on Nalm6 cells, detection via His tag
T1 construct: whole, on cells; also called CD19 on CD19 positive Nalm 6 cells; NALM-6
T1 sequence (looked up): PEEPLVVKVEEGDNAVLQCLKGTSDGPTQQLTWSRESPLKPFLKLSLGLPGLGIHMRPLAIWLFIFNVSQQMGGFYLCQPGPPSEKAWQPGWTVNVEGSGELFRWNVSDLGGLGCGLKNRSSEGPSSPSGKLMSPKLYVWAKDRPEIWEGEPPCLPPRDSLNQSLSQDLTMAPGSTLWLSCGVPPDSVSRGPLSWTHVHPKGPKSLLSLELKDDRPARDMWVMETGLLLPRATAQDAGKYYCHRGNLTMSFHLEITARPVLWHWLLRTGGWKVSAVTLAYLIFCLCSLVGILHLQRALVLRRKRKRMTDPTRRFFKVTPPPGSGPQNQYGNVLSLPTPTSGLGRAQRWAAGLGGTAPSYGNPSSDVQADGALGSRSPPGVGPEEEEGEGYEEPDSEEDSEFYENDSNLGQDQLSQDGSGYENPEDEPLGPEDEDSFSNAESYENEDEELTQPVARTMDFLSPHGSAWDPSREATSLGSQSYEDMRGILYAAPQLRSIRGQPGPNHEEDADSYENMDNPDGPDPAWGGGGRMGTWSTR
Description: CD19 positive Nalm 6 cells (human B cell precursor leukaemia) and CD3 positive Jurkat cells (human T cell leukemia) were used. 200,000 Nalm 6 cells and 200,000 Jurkat cells were incubated with 50 μl the pure cell culture supernatant of CHO cells transfected with the anti-CD19xhum. anti-CD3 specific polypeptide for 30 min on ice. The cells were washed twice in PBS. Then the binding of the construct was detected via its C-terminal Histidin Tag with a murine Penta H is antibody (diluted 1:20 in 50 μl PBS with 2% FCS; Qiagen) followed by a washing step and a Phycoerythrin conjugated Fc gamma specific antibody (Dianova), diluted 1:100 in 50 μl PBS with 2% FCS (FIG. 2A, thick line). As negative control fresh cell culture medium instead of cell culture supernatant was used (FIG. 2, thin line).
Cells were analysed by flow cytometry on a FACS-Calibur (Becton Dickinson, Heidelberg). FACS staining and measuring of the fluorescence intensity were performed as described in Current Protocols in Immunology (Coligan, Kruisbeek, Margulies, Shevach and Strober, Wiley-Interscience, 2002). The binding activity of the bispecific binding molecule was compared to the binding activity of the corresponding control bispecific antibody with the humanized OKT3 part as described in prior art.

EpCAM [1] = biological target: T2, EpCAM (UniProt P16422 24-314, limits assumed); assay: FACS on Kato III cells, CHO supernatant (FIG. 2C)
T2 construct: whole, on cells; also called EpCAM on EpCAM positive Kato III cells
T2 sequence (looked up): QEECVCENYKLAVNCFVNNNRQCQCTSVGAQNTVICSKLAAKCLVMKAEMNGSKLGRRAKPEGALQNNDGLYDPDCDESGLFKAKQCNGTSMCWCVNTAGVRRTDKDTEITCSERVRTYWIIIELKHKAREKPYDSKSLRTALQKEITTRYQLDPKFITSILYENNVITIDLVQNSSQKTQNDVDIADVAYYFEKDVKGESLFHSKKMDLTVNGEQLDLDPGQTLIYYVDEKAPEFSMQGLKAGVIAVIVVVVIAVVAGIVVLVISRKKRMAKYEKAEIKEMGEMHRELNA

EpCAM [2] = biological target: T2, EpCAM; assay: FACS on KatoIII cells, detection via His tag

B1: bispecific anti-CD19xhum. anti-CD3 antibody construct (SEQ ID NO.: 20) (bispecific antibody)
chain: DIQLTQSPASLAVSLGQRATISCKASQSVDYDGDSYLNWYQQIPGQPPKLLIYDASNLVSGIPPRFSGSGSGTDFTLNIHPVEKVDAATYHCQQSTEDPWTFGGGTKLEIKGGGGSGGGGSGGGGSQVQLQQSGAELVRPGSSVKISCKASGYAFSSYWMNWVKQRPGQGLEWIGQIWPGDGDTNYNGKFKGKATLTADESSSTAYMQLSSLASEDSAVYFCARRETTTVGRYYYAMDYWGQGTTVTVSSGGGGSQVQLVQSGGGVVQPGRSLRLSCKSSGYTFTRYTMHWVRQAPGKGLEWIGYINPSRGYTNYNQKVKDRFTISRDNSKNTAFLQMDSLRPEDTGVYFCARYYDDHYCLDYWGQGTPVTVSSVEGGSGGSGGSGGSGGVDDIQMTQSPSSLSASVGDRVTITCRASSSVSYMNWYQQTPGKAPKRWIYDTSKVASGVPSRFSGSGSGTDYTFTISSLQPEDIATYYCQQWSSNPLTFGQGTKLQIT
notes: Bispecific single chain Fv made in CHO cells; FACS used raw culture supernatant; the cytotoxicity assay used purified protein; also called anti-CD19xhum. anti-CD3 (improved hum. OKT3); bispecific humanized improved CD3 (hum. anti-CD3)
cytotoxic activity (EC50), calcein release from NALM-6 target cells with CD4-positive CB15 T-cells (human CD3 complex): 0.05 ng/mL
binding result (CD19): binds

B2: bispecific anti-EpCAM (5-10)x hum. anti-CD3 antibody construct (SEQ ID NO.: 36) (bispecific antibody)
chain: ELVMTQSPSSLTVTAGEKVTMSCKSSQSLLNSGNQKNYLTWYQQKPGQPPKLLIYWASTRESGVPDRFTGSGSGTDFTLTISSVQAEDLAVYYCQNDYSYPLTFGAGTKLEIKGGGGSGGGGSGGGGSEVQLLEQSGAELVRPGTSVKISCKASGYAFTNYWLGWVKQRPGHGLEWIGDIFPGSGNIHYNEKFKGKATLTADKSSSTAYMQLSSLTFEDSAVYFCARLRNWDEPMDYWGQGTTVTVSSGGGGSQVQLVQSGGGVVQPGRSLRLSCKSSGYTFTRYTMHWVRQAPGKGLEWIGYINPSRGYTNYNQKVKDRFTISRDNSKNTAFLQMDSLRPEDTGVYFCARYYDDHYCLDYWGQGTPVTVSSVEGGSGGSGGSGGSGGVDDIQMTQSPSSLSASVGDRVTITCRASSSVSYMNWYQQTPGKAPKRWIYDTSKVASGVPSRFSGSGSGTDYTFTISSLQPEDIATYYCQQWSSNPLTFGQGTKLQIT
notes: Bispecific single chain Fv, tested as CHO culture supernatant
binding result (EpCAM [1]): binds

B3: bispecific anti-EpCAM (3-1)x hum. anti-CD3 antibody construct (SEQ ID NO.: 34) (bispecific antibody)
chain: ELVMTQSPSYLAASPGETITINCRASKSISKYLAWYQEKPGKTNKLLIYSGSTLQSGIPSRFSGSGSGTDFTLTISSLEPEDFAMYYCQQHNEYPYTFGGGTKLEIKGGGGSGGGGSGGGGSEVQLLEQSGAELVKPGASVKISCKASGYAFTNYWLGWVKQRPGHGLEWIGDLFPGSGNTHYNERFRGKATLTADKSSSTAFMQLSSLTSEDSAVYFCARLRNWDEAMDYWGQGTTVTVSSGGGGSQVQLVQSGGGVVQPGRSLRLSCKSSGYTFTRYTMHWVRQAPGKGLEWIGYINPSRGYTNYNQKVKDRFTISRDNSKNTAFLQMDSLRPEDTGVYFCARYYDDHYCLDYWGQGTPVTVSSVEGGSGGSGGSGGSGGVDDIQMTQSPSSLSASVGDRVTITCRASSSVSYMNWYQQTPGKAPKRWIYDTSKVASGVPSRFSGSGSGTDYTFTISSLQPEDIATYYCQQWSSNPLTFGQGTKLQIT
notes: as for B2
binding result (EpCAM [2]): binds
